Test results published in patent US20030148956A1 (PROCTER AND GAMBLE, published 2003).
Ends that are not written are not given here.

Tests used:
CRF1R = assay: cell-based or functional assay
CRF2R = target: T1, CRF2R; assay: cell-based or functional assay
T1 sequence (Q13324 whole entry, species assumed, looked up): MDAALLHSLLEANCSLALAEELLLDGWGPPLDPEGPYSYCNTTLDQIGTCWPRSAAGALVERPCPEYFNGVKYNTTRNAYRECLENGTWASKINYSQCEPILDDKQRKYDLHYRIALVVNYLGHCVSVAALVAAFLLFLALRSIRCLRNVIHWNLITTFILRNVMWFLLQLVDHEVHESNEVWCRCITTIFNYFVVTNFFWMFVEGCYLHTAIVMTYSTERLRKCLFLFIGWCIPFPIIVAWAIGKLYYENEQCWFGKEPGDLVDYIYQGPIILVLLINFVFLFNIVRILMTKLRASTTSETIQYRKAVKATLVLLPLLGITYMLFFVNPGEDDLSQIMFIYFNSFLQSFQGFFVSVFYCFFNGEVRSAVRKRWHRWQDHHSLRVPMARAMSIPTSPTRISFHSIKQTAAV

CRF1R EC50 (CRF1R) [nM] | CRF1R Emax (CRF1R) [%] | CRF2R EC50 (CRF2R) [nM] | CRF2R Emax (CRF2R) [%] | Binder
125 | 99.3 | 3.14 | 95.7 | DNPSLSIDLPFLLLRTLLELARTQSQRERAEQNAIIFASV-NH2 [SEQ ID NO 180]
206 | 99 | 17.6 | 100 | ZGPPISIDVPFQLLRILIEIEKQEKEKQQATTNARILARV (C-terminal amide) [SEQ ID NO 171]
1000 | 68 | 13.5 | 100 | ZGPPISIDVPFQLLRKMIEIEKQEKEKQQATTNARILARV (C-terminal amide) [SEQ ID NO 172]
613 | 69.2 | 5.63 | 97.7 | DNPSLSIDLPLYLLRTLLELARTQSQRERAEQNAIIFASV-NH2 [SEQ ID NO 177]
358 | 95.8 | 8.98 | 100 | DNPSLSIDLPFHLLRTLLELARTQSQRERAEQNAIIFASV-NH2 [SEQ ID NO 185]
106 | 100 | 5.29 | 97 | ZGPPISIDLPFQLLRKMIEIEKQEKEKQQATTNRLLLDRV (C-terminal amide) [SEQ ID NO 18]
906 | 60 | 7.81 | 99 | ZGPPISIDLPFQLLRKMIEIEKQEKEKQQATTNARLLDTV (C-terminal amide) [SEQ ID NO 20]
> 100 | 9 | 39.6 | 31 | ZGPPISIDLPFVLLRKMIEIEKQEKEKQQAANNRLLLDTI (C-terminal amide) [SEQ ID NO 190]
404 | 100 | 8.7 | 99 | ZGPPISIDLPYQLLRKMIEIEKQEKEKQQAANNRLLLDTI (C-terminal amide) [SEQ ID NO 202]
62.2 | 57 | 7 | 96 | ZGPPISIDLPFILLRKMIEIEKQEKEKQQAANNRLLLDTI (C-terminal amide) [SEQ ID NO 189]
63.7 | 65 | 8.3 | 100 | ZGPPISIDLPFLLLRKMIEIEKQEKEKQQAANNRLLLDTI (C-terminal amide) [SEQ ID NO 191]
232 | 83 | 7.42 | 75 | ZGPPISIDLPFQLLRKMIEIEKQEKEKQQATTNRLLLARV (C-terminal amide) [SEQ ID NO 19]
154 | 100 | 5.22 | 97.8 | DNPSLSIDLPFILLRTLLELARTQSQRERAEQNAIIFASV-NH2 [SEQ ID NO 181]
409 | 89.7 | 7.21 | 91.4 | DNPSLSIDLPFQLLRTLLELARTQSQRERAEQNAIIFASV-NH2 [SEQ ID NO 182]
1000 | 55.7 | 5.17 | 96.5 | DNPSLSIDLPLFLLRTLLELARTQSQRERAEQNAIIFASV-NH2 [SEQ ID NO 178]
1000 | 26.9 | 12.6 | 90.2 | DNPSLSIDLPLQLLRTLLELARTQSQRERAEQNAIIFASV-NH2 [SEQ ID NO 176]
1000 | 29.1 | 4.42 | 97.2 | DNPSLSIDLPLLLLRTLLELARTQSQRERAEQNAIIFASV-NH2 [SEQ ID NO 174]
477 | 78.9 | 10.2 | 92.5 | DNPSLSIDLPLHLLRTLLELARTQSQRERAEQNAIIFASV-NH2 [SEQ ID NO 179]
